B1: AHP19509-VHH1 CAR (protein)
chain: EVQLVESGGGLVQPGGSLRLSCAASGGTFNRYTMGWFRQAPGKEREFVSAISWSGGSTDYADSVKGRFTISRDNSKNTLYLQMNSLRAEDTAVYYCDTDRMPYRPVAAGILSWEANWGQGTLVTVSSGGGSGGGSGGGSGGGSEVQLVESGGGLVQPGGSLRLSCAASGGTFNRYTMGWFRQAPGKEREFVSAISWSGGSTDYADSVKGRFTISRDNSKNTLYLQMNSLRAEDTAVYYCDTDRMPYRPVAAGILSWEANWGQGTLVTVSSAAADYKDDDDKIEVMYPPPYLDNEKSNGTIIHVKGKHLCPSPLFPGPSKPFWVLVVVGGVLACYSLLVTVAFIIFWVRSKRSRLLHSDYMNMTPRRPGPTRKHYQPYAPPRDFAAYRSRVKFSRSADAPAYQQGQNQLYNELNLGRREEYDVLDKRRGRDPEMGGKPRRKNPQEGLYNELQKDKMAEAYSEIGMKGERRRGKGHDGLYQGLSTATKDTYDALHMQALPPR
B2: AHP19485-VHH1 CAR (protein)
chain: EVQLVESGGGLVQPGGSLRLSCAASERIFSIHAMGWYRQAPGKQRELVSSITIGGSTHYADSVKGRFTISRDNSKNTLYLQMNSLRAEDTAVYYCNSMLLAGTVGGSWGQGTLVTVSSGGGSGGGSGGGSGGGSEVQLVESGGGLVQPGGSLRLSCAASERIFSIHAMGWYRQAPGKQRELVSSITIGGSTHYADSVKGRFTISRDNSKNTLYLQMNSLRAEDTAVYYCNSMLLAGTVGGSWGQGTLVTVSSAAADYKDDDDKIEVMYPPPYLDNEKSNGTIIHVKGKHLCPSPLFPGPSKPFWVLVVVGGVLACYSLLVTVAFIIFWVRSKRSRLLHSDYMNMTPRRPGPTRKHYQPYAPPRDFAAYRSRVKFSRSADAPAYQQGQNQLYNELNLGRREEYDVLDKRRGRDPEMGGKPRRKNPQEGLYNELQKDKMAEAYSEIGMKGERRRGKGHDGLYQGLSTATKDTYDALHMQALPPR
B3: AHP19484-VHH3 CAR (protein)
chain: QVQLVESGGGLVKPGGSLRLSCAASGSSFHFAFMGWYRQAPGKQRELVADISPGNSTNYADPVKGRFTISRDNAKNSLYLQMNSLRAEDTAVYFCRDLRSWGAWGQGTLVTVSSGGGSGGGSGGGSGGGSQVQLVESGGGLVKPGGSLRLSCAASGSSFHFAFMGWYRQAPGKQRELVADISPGNSTNYADPVKGRFTISRDNAKNSLYLQMNSLRAEDTAVYFCRDLRSWGAWGQGTLVTVSSAAADYKDDDDKIEVMYPPPYLDNEKSNGTIIHVKGKHLCPSPLFPGPSKPFWVLVVVGGVLACYSLLVTVAFIIFWVRSKRSRLLHSDYMNMTPRRPGPTRKHYQPYAPPRDFAAYRSRVKFSRSADAPAYQQGQNQLYNELNLGRREEYDVLDKRRGRDPEMGGKPRRKNPQEGLYNELQKDKMAEAYSEIGMKGERRRGKGHDGLYQGLSTATKDTYDALHMQALPPR
B4: VHH6 CAR (protein)
chain: DVQLQESGGGLVQAGGSLRLSCAVSGYPYSSYCMGWFRQAPGKEREGVAAIDSDGRTRYADSVKGRFTISQDNAKNTLYLQMNRMKPEDTAMYYCAARFGPMGCVDLSTLSFGHWGQGTQVTVSITGGGGSGGGGSGGGGSGGGGSDVQLQESGGGLVQAGGSLRLSCAVSGYPYSSYCMGWFRQAPGKEREGVAAIDSDGRTRYADSVKGRFTISQDNAKNTLYLQMNRMKPEDTAMYYCAARFGPMGCVDLSTLSFGHWGQGTQVTVSITAAADYKDDDDKIEVMYPPPYLDNEKSNGTIIHVKGKHLCPSPLFPGPSKPFWVLVVVGGVLACYSLLVTVAFIIFWVRSKRSRLLHSDYMNMTPRRPGPTRKHYQPYAPPRDFAAYRSRVKFSRSADAPAYQQGQNQLYNELNLGRREEYDVLDKRRGRDPEMGGKPRRKNPQEGLYNELQKDKMAEAYSEIGMKGERRRGKGHDGLYQGLSTATKDTYDALHMQALPPR

The target in the assay is PE-Labelled Human CD7 Protein, His Tag (ACROBiosystems, Cat# CD7-HP2E3) (human) (UniProt P09564). The assay is described as follows: flow cytometry of CAR-T cells stained with PE-labelled human CD7 protein, His tag.
Sequence of PE-Labelled Human CD7 Protein, His Tag (ACROBiosystems, Cat# CD7-HP2E3) (human) (P09564 26-180 limits assumed): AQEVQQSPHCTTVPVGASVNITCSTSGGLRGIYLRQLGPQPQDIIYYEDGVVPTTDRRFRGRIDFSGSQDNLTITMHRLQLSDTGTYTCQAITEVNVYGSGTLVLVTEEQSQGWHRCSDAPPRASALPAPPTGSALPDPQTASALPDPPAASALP
On to B1, for which the CAR expression% (cells stained by PE-labelled human CD7 protein) is 97.3%.

Consider B2, for which the CAR expression% (cells stained by PE-labelled human CD7 protein) was determined as 99.7%.

For B3, the CAR expression% (cells stained by PE-labelled human CD7 protein) is 92.8%.

In turn, B4 gave a CAR expression% (cells stained by PE-labelled human CD7 protein) of 99.1%.
